The target of series [1] is humanized APP bearing the Swedish variant (a murine APP in which the Aβ1-42 region corresponds to the human Aβ1-42), P12023.
The target of series [2] is hAPP717 (variant of humanized APP), P12023.
Series [3] addresses T1, humanized wild type APP (hAPPwt), P12023.
T1 chain: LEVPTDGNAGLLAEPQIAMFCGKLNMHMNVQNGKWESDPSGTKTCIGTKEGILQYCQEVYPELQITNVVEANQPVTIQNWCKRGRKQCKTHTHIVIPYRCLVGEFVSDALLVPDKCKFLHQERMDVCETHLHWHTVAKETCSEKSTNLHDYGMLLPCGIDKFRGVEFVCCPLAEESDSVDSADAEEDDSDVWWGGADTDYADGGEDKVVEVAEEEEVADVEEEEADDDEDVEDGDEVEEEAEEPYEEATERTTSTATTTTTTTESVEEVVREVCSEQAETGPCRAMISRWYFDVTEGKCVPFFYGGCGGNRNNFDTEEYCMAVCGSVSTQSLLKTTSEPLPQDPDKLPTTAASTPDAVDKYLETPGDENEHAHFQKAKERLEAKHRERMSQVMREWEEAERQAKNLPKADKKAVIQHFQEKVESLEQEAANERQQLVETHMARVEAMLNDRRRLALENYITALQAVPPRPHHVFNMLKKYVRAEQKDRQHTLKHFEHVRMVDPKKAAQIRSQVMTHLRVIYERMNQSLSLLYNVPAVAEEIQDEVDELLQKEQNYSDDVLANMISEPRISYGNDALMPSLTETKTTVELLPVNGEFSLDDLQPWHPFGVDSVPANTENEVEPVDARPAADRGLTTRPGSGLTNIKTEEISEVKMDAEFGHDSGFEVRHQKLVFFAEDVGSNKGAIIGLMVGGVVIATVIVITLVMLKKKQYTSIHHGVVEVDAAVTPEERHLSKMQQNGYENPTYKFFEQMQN

The target in series [4] is T2, mouse APP (endogenous β-amyloid precursor protein), P12023.
T2 chain: T1 chain

Where a chain is given by its changes, count along the chain named.

B1: BACE2 (endogenous, in cultured mouse astrocytes and neurons) (protein)
chain: ALEPVRATANFLAMVDNLQGDSGRGYYLEMLIGTPPQKVQILVDTGSSNFAVAGAPHSYIDTYFDSESSSTYHSKGFDVTVKYTQGSWTGFVGEDLVTIPKGFNSSFLVNIATIFESENFFLPGIKWNGILGLAYAALAKPSSSLETFFDSLVAQAKIPDIFSMQMCGAGLPVAGSGTNGGSLVLGGIEPSLYKGDIWYTPIKEEWYYQIEILKLEIGGQNLNLDCREYNADKAIVDSGTTLLRLPQKVFDAVVEAVARTSLIPEFSDGFWTGAQLACWTNSETPWAYFPKISIYLRDENASRSFRITILPQLYIQPMMGAGFNYECYRFGISSSTNALVIGATVMEGFYVVFDRAQRRVGFAVSPCAEIEGTTVSEISGPFSTEDIASNCVPAQALNEPILWIVSYALMSVCGAILLVLILLLLLPLHCRHAPRDPEVVNDESSLVRHRWK
In the case of B1, the “relative amount of Aβ 1-19 and Aβ 1-20 normalized to Aβ1-40 (ProteinChip array coated with 6E10)” value in series [1] was “BACE2 mediated cleavages (at +19 and +20 of Aβ) were much higher in cultured astrocytes as compared to neurons”.

B2: human BACE1 (full-length, expressed from recombinant adenovirus) (protein)
chain: ETDEEPEEPGRRGSFVEMVDNLRGKSGQGYYVEMTVGSPPQTLNILVDTGSSNFAVGAAPHPFLHRYYQRQLSSTYRDLRKGVYVPYTQGKWEGELGTDLVSIPHGPNVTVRANIAAITESDKFFINGSNWEGILGLAYAEIARPDDSLEPFFDSLVKQTHVPNLFSLQLCGAGFPLNQSEVLASVGGSMIIGGIDHSLYTGSLWYTPIRREWYYEVIIVRVEINGQDLKMDCKEYNYDKSIVDSGTTNLRLPKKVFEAAVKSIKAASSTEKFPDGFWLGEQLVCWQAGTTPWNIFPVISLYLMGEVTNQSFRITILPQQYLRPVEDVATSQDDCYKFAISQSSTGTVMGAVIMEGFYVVFDRARKRIGFAVSACHVHDEFRTAAVEGPFVTLDMEDCGYNIPQTDESTLMTIAYVMAAICALFMLPLCLMVCQWRCLRCLRQQHDDFADDISLLK
Regarding B2, in series [2], the “+11 derived β-CTF in neurons (immunoprecipitation with CT15)” value (“+11 derived β-CTF in neurons” below) was “when neurons co-expressing human BACE1 and hAPPwt or hAPPswe or hAPP717 there is secreted a peptide corresponding to the +11 derived β-CTF (+11-CTF) in addition to the +1 derived β-CTF”; the “secretion of human Aβ11-40 (IP-MS of conditioned media with 4G8)” value is “The human Aβ11-40 peptides are also secreted by primary neurons co expressing human BACE1 and hAPPswe or hAPP717”. In addition, in series [3], the “+11 derived β-CTF in neurons” value was “when neurons co-expressing human BACE1 and hAPPwt or hAPPswe or hAPP717 there is secreted a peptide corresponding to the +11 derived β-CTF (+11-CTF) in addition to the +1 derived β-CTF”; the “secretion of human Aβ11-40 (IP-MS of conditioned media with 4G8)” value is “now revealed the secretion of human Aβ11-40 peptide in addition to the murine Aβ11-40 peptide from murine neurons co-expressing human BACE1 and hAPPwt”. In series [1], the “+11 derived β-CTF in neurons” value was “when neurons co-expressing human BACE1 and hAPPwt or hAPPswe or hAPP717 there is secreted a peptide corresponding to the +11 derived β-CTF (+11-CTF) in addition to the +1 derived β-CTF”; the “secretion of Aβ peptides into culture medium of BACE1 deficient astrocytes” value is “BACE1 deficient astrocytes co-infected with adenoviruses expressing both APPswe and BACE1 restored the ability to secrete Aβ peptides into culture medium”; the “secretion of human Aβ11-40 (IP-MS of conditioned media with 4G8)” value was “The human Aβ11-40 peptides are also secreted by primary neurons co expressing human BACE1 and hAPPswe or hAPP717”.

B3: mouse BACE1 (endogenous, beta-site APP-cleaving enzyme 1) (protein)
chain: B2 chain with P6S, V162I, L165I, S180T, V182A, I340V, L393A, Q443H
Turning to B3, the “secretion of Aβ peptides from primary cortical neurons (IP-MS of conditioned media with 4G8)” value in series [4] was “secretion of these Aβ species is abolished from BACE1-/- neurons except for the Aβ 17-40 (p3) fragment”. For the same protein, the “secretion of Aβ peptides (IP-MS of conditioned media with 4G8)” value in series [3] is “the human and murine Aβ1-40 and Aβ1-42 were secreted, however, the human Aβ11-40 peptide was not secreted into culture media from murine primary neurons infected with adenovirus expressing hAPPwt”. For the same protein, in series [1], the “Aβ1-40 and Aβ1-42 in conditioned media of astrocytes (Aβ ELISA)” value was “Aβ1-40 and Aβ1-42 were easily detected from BACE1+/+ and BACE1+/- astrocyte cultures by Aβ ELISA assay, but were not detectable from BACE1-/- cultures”; the “Aβ1-40 and Aβ1-42 in conditioned media of neurons (quantitative sandwich ELISA)” value was “showed high levels of Aβ1-40 and Aβ1-42 while undetectable levels of Aβ1-40 and Aβ1-42 were observed from media of BACE1-/- cultures expressing APPswe”.

(Values after US20020157122.)
